Results from the nanobody polyreactivity screen of Harvey et al. (2022).

Test: yeast display, Sf9 membrane polyspecificity reagent, FACS + sequencing; frameworks hold sequencing errors
Method in brief: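 Nanobodies from a synthetic yeast display library (Saccharomyces cerevisiae BJ5465), induced 36–48 hours with galactose, were stained 1 hour at 4 °C with 10% biotinylated, detergent-solubilized Sf9 membrane reagent, enriched on streptavidin microbeads, then FACS-sorted. Anti-HA (expression) and streptavidin (reagent binding) fluorescence set low and high (top ~1%) gates. Polyreactivity labels come from the gate of origin. Genes were colony-PCR amplified, MiSeq 2 × 250 sequenced and filtered by CDR length.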

Question: With “QVQHVESGGGLVQAGGSLRLSCAASGSTFRYYTMGWYRQAPGKERELVADITIGGSTYYADSVKGRFTISRDNAKNTVYLQMNSLKPEDTAVYYCAARSTGGRIFATGVAYDYWGQGTQVTVST” as the sequence, how does the “polyreactivity (PSR sort gate)” value read?
Answer: low polyreactivity

Question: With “QVQHVESGGGLVQAGGSLRLSCAASGSTFSLYAMGWSRQAPGKERELVAAIRGSGGSPYYADSVKGRFTISRDNAKNTVYLQMNTQTPEDSAVYYCAKKRYHGSNYGYDYWGQGTQVTVSS” as the sequence, how does the “polyreactivity (PSR sort gate)” value read?
Answer: high polyreactivity

Question: Which “polyreactivity (PSR sort gate)” value does the source give for “QVQHVESGGGLVQAGGSLRLSCAASGSTFSQYAMGWYRQAPGKERELVAAITRGGRTYYADSVKGRFTISRDNAKNTVYLQMNSLKPEDTAVYYCAARGGYRLRYIPYVRYDYWGQGTQVTVSS” here?
Answer: high polyreactivity

Question: With “QVQHVESGGGLVQAGGSLRLSCAASGSTFTAYVMGWYRQAPGKERELVAAISRSGGRTYYADSVKGRFTISRDNAKNTVYLQMNSLKPEDTAVYYCAARSGPLAYDYWGQGTQVTVSS” as the sequence, how does the “polyreactivity (PSR sort gate)” value read?
Answer: high polyreactivity

Question: Which “polyreactivity (PSR sort gate)” value does the source give for “QVQHVESGGGLVQAGGSLRLSCAASGSTFVGNAMGWYRQAPGKERELVADITSGGSTNYADSVKGRFTISRDNAKNTVYLQMNSLKPEDTAVYYCAAVYLWSQRREFWGQGTQVTVSS” here?
Answer: low polyreactivity

Question: With “QVQHVESGGGLVQAGGSLRLSCAASGSTFWYAMGWYRQAPGKERELVAAITARGGRTYYADSVKGRFTISRDNAKNTVYLQMNSLKPEDTAVYYCARLSYAGGQWIIAKYDYWGQGTQVTVSS” as the sequence, how does the “polyreactivity (PSR sort gate)” value read?
Answer: high polyreactivity

Question: Which “polyreactivity (PSR sort gate)” value does the source give for “QVQHVESGGGLVQAGGSLRLSCAASGSTFWYNAMGWYRQAPGKERELVAAISYSGGRTYYADSVKERFTISRDNAKNTVYLQMNSLKPEDTAVYYCNAASRYGGDYWGQGTQVTVSS” here?
Answer: low polyreactivity

Question: Which “polyreactivity (PSR sort gate)” value does the source give for “QVQHVESGGGLVQAGGSLRLSCAASGSTFYYYAMGWYRQAPGKERELVAAIRSDVSTNYADSVKGRFTISRDNAKNTVYLQMNSLKPEDTAVYYCAARFPWNRVTYDYWGQGTQVTVSS” here?
Answer: low polyreactivity

Question: Which “polyreactivity (PSR sort gate)” value does the source give for “QVQHVESGGGLVQAGGSLRLSCAASGSTIRRNAMGWYRQAPGKERELVAAISGTGGRTYYADSVKGRFTISRDNAKNTVYLQMNSLKPEDTAVYYCNAAGRFYWGQGTQVTVSS” here?
Answer: high polyreactivity

Question: With “QVQHVESGGGLVQAGGSLRLSCAASGSTLGGYAMGWSRQAPGKERELVAAISGSGGSTYYADSVKGRFTISRDNAKNSVYLQMNSLKPEDTAVYYCNAAVLGGIYRYYDYRYDYWGQGTQLTVSS” as the sequence, how does the “polyreactivity (PSR sort gate)” value read?
Answer: low polyreactivity

Question: For “QVQHVESGGGLVQAGGSLRLSCAASGSTLSRYVMGWDRQAPGKERELVASISWTGTRTYYADSVKGRFTISRDNAKNTVYLQMNSLKPEDTAVYYCNAVSRGGRLYDYWGQGTQVTVSS”, which “polyreactivity (PSR sort gate)” value is on record?
Answer: high polyreactivity

Question: With “QVQHVESGGGLVQAGGSLRLSCAASGYTFFANAMGGYRQAPGKERELVAGINRSGSTYYADSVKGRFTISRDNAKNTVYLQMNSLKPEDTAVYYFATAWHRGVRGRTSGAFDYWGQGTQVTVSS” as the sequence, how does the “polyreactivity (PSR sort gate)” value read?
Answer: high polyreactivity

Question: For “QVQHVESGGGLVQAGGSLRLSCAATGTTFDTYAMGWNRQATGKERELVAAINSGGGTNYADSVKGRFTIARDNAKNTVYLQMNSLKPEVTAVYYCATDIRRDAGGGDFDYWGQGTQVTVSS”, which “polyreactivity (PSR sort gate)” value is on record?
Answer: low polyreactivity

Question: For “QVQHVESGGGLVQAGGSLRLSCADSGSTFWFNAMGWYRQAHGKERELVAAIDWSDGSTYYADSVKGRFTISRDNAKNTVYLQMNSLKPEDTAVYYCAADHRYSARRSVPTLYDYWGQGTHVTVSS”, which “polyreactivity (PSR sort gate)” value is on record?
Answer: low polyreactivity

Question: Which “polyreactivity (PSR sort gate)” value does the source give for “QVQHVESGGGLVQAGGSLRLSCASSGRIIGKYVMAWYRQAPGKERELVAGISWSAGSTYYADSVKGRFTISRDNAKNTVYLQMNSLKPEDTAVYYCAAGLEGVYDYWGQGTQVTVSS” here?
Answer: low polyreactivity

Question: Which “polyreactivity (PSR sort gate)” value does the source give for “QVQHVESGGGLVQAGGSLRLSCDASGITFGHYTMGWYRQAHGKEREFVAAISWSGGSTYYADSVKGRFTISRDNAKNTVYLQMNSLKPEYTAVYYCNRVKPVIASYDSDYWGQGTQVTVSS” here?
Answer: low polyreactivity

Question: For “QVQHVESGGGLVQAGGSLRLSGAASGSTFTYNTMGWYRQAPGKERELVAAITTYGGNTYYADSVKGRFTISRDNAKNTVYLQMNSLKPEDSAVYYCAARVIFGDFDYWGQGTQVTVSS”, which “polyreactivity (PSR sort gate)” value is on record?
Answer: low polyreactivity

Question: For “QVQHVESGGGLVQAGGSLRLTCAASARIFRYYPMGRYRPAPGKERELVAGITTGGGSTYYADSVKGRFTISRENAKNTVYLQMNSLKPEDTAVFYCAARYYTTYYWGQGTQVTVSS”, which “polyreactivity (PSR sort gate)” value is on record?
Answer: high polyreactivity

Question: For “QVQHVESGGGLVQAGGSLSLSCAASGRTILWNAMGWYRQAPGKERELVAAITSGGRTYYADSVKGRFTISRDNAKNTVYLQMNSLIPEDTAVYYCAASTVYWSTVNSQARFNYWGQGTQVTVSS”, which “polyreactivity (PSR sort gate)” value is on record?
Answer: high polyreactivity

Question: For “QVQHVESGGGLVQAGGSLSLSCADSGITFYRYAMGCDRQAPAKERELVDRISQIGGSTYYADSVKGRFTISRDNAKNTVYLQMNSLKPEDTAVYYCNARVRYSTVTYLRKYYYWGQGTQVTVSS”, which “polyreactivity (PSR sort gate)” value is on record?
Answer: high polyreactivity

Question: Which “polyreactivity (PSR sort gate)” value does the source give for “QVQHVESGGGLVQAGVSLRLSCAASGSIFVNNGMGWYRQAPGKERELVAAIRLSTGSTYYADSVKGRFTISRDNAKNTVYLQMNSLKPEDTAVYYCATRSYIWGNWGQGTQVTVSS” here?
Answer: high polyreactivity

Question: For “QVQHVESGGGLVQARGSLRLSCAASGSIFWYNAMGWYRQAPGTVRELVAAINWSGGSTFYADSVKGRFTISRDNAKNTVYLQMNSLKPEDTAVDYCAADDWYTGYDYWGQGTQVTVSS”, which “polyreactivity (PSR sort gate)” value is on record?
Answer: high polyreactivity

Question: With “QVQHVESGGGLVQAVGSLRLSCAASGNIFDRNAMGWYRQARGKERELVAAISRSGGRTYYADSVKGRFTISRDNAKNTVYLQMNSLKPEDTAVYYCNRRYRKYSSAKYDYWGQGTQVTVSS” as the sequence, how does the “polyreactivity (PSR sort gate)” value read?
Answer: high polyreactivity

Question: For “QVQHVESGGGLVQEGGSLRLSCAASGRIFRTNAMVWYRQAPGKERELVAAITRDGTTNYADSVKGRFTISRDNAKNTVYLQMNSLIPEDTAVYYCNARYRRSPIKFTYVRYVYEYDYWGQGTQVTVSS”, which “polyreactivity (PSR sort gate)” value is on record?
Answer: low polyreactivity

Question: With “QVQHVESGGGSVQAGGRLRLSCAASGSTFIEYAMGWYRKAPGKERELVAGITTSSGRTSYADSVKGRFTISRDNAKNTVYLQMNSLKPEDTAVYYCAAKSYSDYDYWGQGTQVTVSS” as the sequence, how does the “polyreactivity (PSR sort gate)” value read?
Answer: low polyreactivity

Question: For “QVQHVESGGGVVQAVGSLRLSCAASGYIFRTNAMGWYRQARGKERELVAAITRSGGRTYYADSVKGRFTISRDNAKNTVYLQMNSLKPEDTAVYYCAAGGRKPVITGDYWGQGTQVTVSS”, which “polyreactivity (PSR sort gate)” value is on record?
Answer: high polyreactivity

Question: Which “polyreactivity (PSR sort gate)” value does the source give for “QVQHVESGRGFVKAGCSLRLSCASSGSIFVKNAMGRYRQAPGKERELVARITYSGGSTYYADSVKGRFTISRDNAKNTVYLQMNSVKPEDNAGYYCARTRKIAGYYYWGQGTQVTESS” here?
Answer: high polyreactivity

Question: Which “polyreactivity (PSR sort gate)” value does the source give for “QVQHVESRGCLLQAGGSLRLSCAASGITFRYYTMGWYRQAPGKESELVAAITWSGSSTYYAVSVKGRFTISRDNAKNTVYLQMNSLKPEHTAVYYCAKPYHQRSAKVDYWGQGTQVTVSS” here?
Answer: low polyreactivity

Question: With “QVQHVESRGGIVQAGGSLRLSCAASGFTFAYYAMGRYRQAPGKERELVAAINYSGGSTYYADSVKGRFTISRDNAKNTVYLQMNSLKPEDTAVYYCATEYYRYDGSSYDYWGQGTQVTVSS” as the sequence, how does the “polyreactivity (PSR sort gate)” value read?
Answer: high polyreactivity

Question: Which “polyreactivity (PSR sort gate)” value does the source give for “QVQHVESRGGLVQAGGSLRLSCAASGFISRAYAMGWYRQAPGKERELVAAISVRVGSTYYADSVKGRFTISRDNAKNTVYLQMYSLKPEDTAVYYCAALRPWPRYDYWGQGTQVTVSS” here?
Answer: high polyreactivity

Question: Which “polyreactivity (PSR sort gate)” value does the source give for “QVQHVESRGGLVQAGGSLRLSCAASGFTFYYNAMGWYRQAPVKERELVAIRFRGGNTYYADSVKGRFTISRDNAKNTVYLQMNSLKPEDTAVYYCNADDRGSTYVDFVYWGQGTQVTVSS” here?
Answer: low polyreactivity

Question: For “QVQHVESRGGLVQAGGSLRLSCAASGRIFPRYAMGWYRQAPGKERELVAAISWSGGSTYYADSVKGRFTISRDNAKNTVYLQMNSLKPEDTAVYYCAARGRLRYSGSIIYYWGQGTQVTVSS”, which “polyreactivity (PSR sort gate)” value is on record?
Answer: high polyreactivity

Question: With “QVQHVESRGGLVQAGGSLRLSCAASGRIFTGYAMGWYRQAPGKERELVAAITASGGNTYYADSVKGRFTISRVNAKNTVYLQMNSLTPEDTAVFYCAADFYYYKIQYAYWGQGTQVTVSS” as the sequence, how does the “polyreactivity (PSR sort gate)” value read?
Answer: low polyreactivity

Question: With “QVQHVESRGGLVQAGGSLRLSCAASGRSFSDYAMGGYRQAAGKERELVASINSGGSTYYADSVKGRFTISRDKAKNTVYLHMNSLKPEDTAVYYCAAGFQLVKGSLSGRAAYYYWGQGTQVTVSS” as the sequence, how does the “polyreactivity (PSR sort gate)” value read?
Answer: high polyreactivity

Question: For “QVQHVESRGGLVQAGGSLRLSCADSGSIFRAYAKGWYIQAPGKERELVADISRSGGSTYYADSVKGRFTISRDNANNTVYLQMNRLNPEDTAVYYCAAVFYLYSNLYGEYEYWGQGTQVTLSS”, which “polyreactivity (PSR sort gate)” value is on record?
Answer: low polyreactivity

Question: With “QVQHVESRRGLVQAGGSLRLSCAASGFTFYSYAMGWYRQAPGKEREFVAAGSTYYADSVKGRFTISRDNAKNTDYLQMNSLKPEDTAVYYCATDPIGGWTRPQRYGDDYWGQGTQVTVSS” as the sequence, how does the “polyreactivity (PSR sort gate)” value read?
Answer: low polyreactivity

Question: With “QVQHVESVGGLVQAGGSLRLSCAASGSIFEYNAMGWYRQAPGKERELVAAISWSSGTTYYADSVKGRFTISRDNAKNTVYLQMNSLKPEDTAVYYCNAGRYGKDSDYWGQGTQVTVSS” as the sequence, how does the “polyreactivity (PSR sort gate)” value read?
Answer: low polyreactivity

Question: With “QVQHVVSVGGLVQAGGSLRLSCAASGSTFLLNTMGWYRQAPGKERELVAAISSITGDTYYADSVKGRFTISRDNAKNTVYLQMNSLKPEDTAVYYCAAYLSETRPYLYDYWGLGTQVTVSS” as the sequence, how does the “polyreactivity (PSR sort gate)” value read?
Answer: low polyreactivity

Question: Which “polyreactivity (PSR sort gate)” value does the source give for “QVQIEESGGGLVQAGGSLRLICAASGRIFLPYVMGWYRQAPGKERELVATITFGRSTTYADSVKGRFTISRDNAKNTVYLQMNCLKPEDTAFYYCNALSALAVEDGYWGHGTQVTVSS” here?
Answer: low polyreactivity

Question: For “QVQIEESGGGLVQAGGSLRLSCAASGLIFGSYVMGWYRQAPGKERELVAAITVRTGTTYYADSVKGRFTISRDNAKNTVYLKMNSLKPEDTAVYYCALRYRPKYGYWGQGTQVTVSS”, which “polyreactivity (PSR sort gate)” value is on record?
Answer: high polyreactivity

Question: For “QVQIEESGGGLVQAGGSLRLSCAASGSIFGKYAMGWYRQAPGKERELVAAITWSGGYTRYADSGKGRFTISRDKAKNTVYLLMNSLKPEDTAVYYCADPSTESKYYYWGQGTQVTVSS”, which “polyreactivity (PSR sort gate)” value is on record?
Answer: high polyreactivity

Question: With “QVQIEESGGGLVQAGGSLRLSCAASGSTFGSYAMGWYRQAPGKEREFVAAISKRGGSTYYADSVKGRFTISRDNAKNTVYLQMNSLKPEDTAVYYCNRRQEYYSLHKTFNYWGQGTQVTVSS” as the sequence, how does the “polyreactivity (PSR sort gate)” value read?
Answer: high polyreactivity

Question: With “QVQIEESGGRLVQAGGILRLSCAASGRPFNVNFKGWNRQAPGKEWELVAAIRYTGGSTYADSVKGRFTISRDNAKNTVYLQMNSLKPEDTAVYYCNADTVFPFDHGMDYWGQGTQVTVSS” as the sequence, how does the “polyreactivity (PSR sort gate)” value read?
Answer: low polyreactivity
